# B1: Solute carrier family 26 member 9 (Homo sapiens), Q7LBE3-1 (parent)
# chain: MSQPRPRYVVDRAAYSLTLFDDEFEKKDRTYPVGEKLRNAFRCSSAKIKAVVFGLLPVLSWLPKYKIKDYIIPDLLGGLSGGSIQVPQGMAFALLANLPAVNGLYSSFFPLLTYFFLGGVHQMVPGTFAVISILVGNICLQLAPESKFQVFNNATNESYVDTAAMEAERLHVSATLACLTAIIQMGLGFMQFGFVAIYLSESFIRGFMTAAGLQILISVLKYIFGLTIPSYTGPGSIVFTFIDICKNLPHTNIASLIFALISGAFLVLVKELNARYMHKIRFPIPTEMIVVVVATAISGGCKMPKKYHMQIVGEIQRGFPTPVSPVVSQWKDMIGTAFSLAIVSYVINLAMGRTLANKHGYDVDSNQEMIALGCSNFFGSFFKIHVICCALSVTLAVDGAGGKSQVASLCVSLVVMITMLVLGIYLYPLPKSVLGALIAVNLKNSLKQLTDPYYLWRKSKLDCCIWVVSFLSSFFLSLPYGVAVGVAFSVLVVVFQTQFRNGYALAQVMDTDIYVNPKTYNRAQDIQGIKIITYCSPLYFANSEIFRQKVIAKTGMDPQKVLLAKQKYLKKQEKRRMRPTQQRRSLFMKTKTVSLQELQQDFENAPPTDPNNNQTPANGTSVSYITFSPDSSSPAQSEPPASAEAPGEPSDMLASVPPFVTFHTLILDMSGVSFVDLMGIKALAKLSSTYGKIGVKVFLVNIHAQVYNDISHGGVFEDGSLECKHVFPSIHDAVLFAQANARDVTPGHNFQGAPGDAELSLYDSEEDIRSYWDLEQEMFGSMFHAETLTAL
# Variants of: B1
# Settings: with gopc_human GOPC
row,effect of a mutation on the interaction,Variant
1,decreasing interaction strength,T789A

# From IntAct's records for PubMed 28360110
